Measured values as given in paper PMC9640981, “Plant vernalization proteins contain unusual PHD superdomains without histone H3 binding activity” (The Journal of Biological Chemistry, 2022).
“Also recorded” adds a separate entry of the source.

How the values were obtained:
VIN3 PHD superdomain = test: Interaction of negatively charged polymers with VIN3 PHD superdomain (NMR and ITC, summary); format: binding, Phoenix dactylifera; settings: listed as RNA
Method: ITC was carried out at 25 °C with an iTC 200 Microcalorimeter (GE Healthcare) in 25 mM Tris pH 8, 150 mM NaCl, and 1 mM DTT. Titrations consisted of 19 consecutive 2 μl injections of 0.25 to 1 mM peptide solution (following a preinjection of 0.5 μl) into 50 μM protein (VIN3PHD, VIN3_123-326, VIN3_116-307, OBE1_193-372, or pVP13 VIN3_130-299) at time intervals of 120 s. ITC data were analyzed using MicroCal PEAQ-IT Analysis Software (Malvern Sciences).
For NMR spectroscopy, A. thaliana VIN3_150-208 and P. dactilyfera VIN3_123-326 were expressed in M9 minimal medium supplemented with 0.4% glucose, antibiotics, trace elements, 25 ml overnight culture, and 2 g of ^15N-H4Cl per liter of expression culture. Cultures were grown and processed essentially as described before. NMR samples containing 50 μM ^15N-labeled VIN3_150-208 or VIN3_123-326 were prepared in aqueous buffer (25 mM Tris pH 8, 150 mM NaCl, and 1 mM DTT). The 50 μM ^15N-labeled VIN3_150-208 or VIN3_123-326 was incubated with 0.5 mM histone H3 peptides resuspended in 25 mM Tris pH 8, 150 mM NaCl, and 1 mM DTT for >30 min before measurement. Spectra were recorded on a Bruker Avance-III spectrometer operating at 600 MHz ^1H frequency and equipped with a 5 mm inverse detection cryogenic probe. BEST-TROSY shift correlation experiments ([45]) were acquired with 256 × 1024 points in t1 and t2, respectively. […]

[1] = tested on: ^15N-labeled Pd VIN3_123-326; test: NMR (BEST-TROSY) interaction of negatively charged polymers with Pd VIN3 PHD superdomain; format: binding, Phoenix dactylifera
Method: For NMR spectroscopy, A. thaliana VIN3_150-208 and P. dactilyfera VIN3_123-326 were expressed in M9 minimal medium supplemented with 0.4% glucose, antibiotics, trace elements, 25 ml overnight culture, and 2 g of ^15N-H4Cl per liter of expression culture. Cultures were grown and processed essentially as described before. NMR samples containing 50 μM ^15N-labeled VIN3_150-208 or VIN3_123-326 were prepared in aqueous buffer (25 mM Tris pH 8, 150 mM NaCl, and 1 mM DTT). The 50 μM ^15N-labeled VIN3_150-208 or VIN3_123-326 was incubated with 0.5 mM histone H3 peptides resuspended in 25 mM Tris pH 8, 150 mM NaCl, and 1 mM DTT for >30 min before measurement. Spectra were recorded on a Bruker Avance-III spectrometer operating at 600 MHz ^1H frequency and equipped with a 5 mm inverse detection cryogenic probe. BEST-TROSY shift correlation experiments ([45]) were acquired with 256 × 1024 points in t1 and t2, respectively. Spectra were processed in TopSpin version 3.2 (Bruker), with linear prediction in t1, giving a digital resolution of 2.2 and 8.2 Hz/point in the processed data.
Generation of nucleic acid probes for NMR
FLC DNA was used as a template for the design of a dsDNA 60-mer probe, generated by annealing the sequence (5′ […] 3′) and its complementary oligonucleotide for 2 min at 95 °C. […]

B1: 63-mer RNA: FLC RNA transcript, 5′ GGGAAAGAGAAAACGCUUAGUAUCUCCGGCGACUUGAACCCAAACCUGAGGAUCAAAUUAGGG 3′ (nucleic acid)
chain: GGGAAAGAGAAAACGCUUAGUAUCUCCGGCGACUUGAACCCAAACCUGAGGAUCAAAUUAGGG
modifications: RNA, backbone not given here; further chemistry not fully specified
propensity for interaction with negatively charged polymers (in words) (VIN3 PHD superdomain): moderate propensity for interacting; also recorded: interact weakly; also recorded: can interact instead with negatively charged polymers | perturbation of BEST-TROSY spectrum (in words) ([1]; 50 μM ^15N-labeled VIN3_123-326, 4 μM 60-mer dsDNA or 63-mer RNA (Fig. 6A, B), ssDNA comparison E. F.-E., unpublished): produced perturbations of the same individual crosspeaks | minimal concentration required to produce spectral perturbations ([1]; BEST-TROSY, 50 μM ^15N-labeled VIN3_123-326, 25 mM Tris pH 8, 150 mM NaCl, 1 mM DTT): 2 µM
